According to the supplement of paper PMC10724198:
± gives the standard deviation of the averaged measurements.

Tested on: Saccharomyces cerevisiae
Assay: protein stability index of tFT-peptide fusion (C-terminal peptide) (PSI (0-1 scale)); higher = more stable (slower turnover)
Conditions: genetic background: wild type; temperature: 30 C
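Also: PSI is a weighted mean of sequencing reads over stability bins, variants kept only with over 10 reads, mCherry proximal and sfGFP distal, peptide attached via GGGS linker.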

GFAIWRDGKYRR and KCLALSAGWIAT are within error of each other in protein stability index: 0.674 ± 0.022 for the first, 0.627 ± 0.033 for the second.

Compared with KKKNEKQNRLKN, LRSAPTLFTRPY is lower in protein stability index: 0.769 ± 0.029 for the first, 0.677 ± 0.0091 for the second.

First: GMRILRLIHVIP
Second: IACLDVLRRALF
The protein stability index of the first is lower: 0.571 ± 0.031 for the first, 0.627 ± 0.016 for the second.

RYYNDKKEKNIL and LPTSPQLPHAPS are within error of each other in protein stability index: 0.706 ± 0.0085 for the first, 0.7192 ± 0.0046 for the second.

PDPGPPYPTPTA and GGGARCGGGCRV are within error of each other in protein stability index: 0.708 ± 0.066 for the first, 0.684 ± 0.03 for the second.

EVTGGRGGEGGV and GGSVGSGSRLVV are within error of each other in protein stability index: 0.694 ± 0.046 for the first, 0.715 ± 0.038 for the second.

VRMKAAIGNGAE and PSCLPPPAHLEL are within error of each other in protein stability index: 0.6686 ± 0.0037 for the first, 0.705 ± 0.043 for the second.

THLASTESVVRP and VTEGGGGGKGRG are within error of each other in protein stability index: 0.69 ± 0.033 for the first, 0.6917 ± 0.0064 for the second.

Compared with PPAPPPLSPSPI, RYLSVPGLEIPK is lower in protein stability index: 0.832 ± 0.04 for the first, 0.677 ± 0.068 for the second.

AYVSLRASLLSS and PLLASRFLQVGF are within error of each other in protein stability index: 0.633 ± 0.063 for the first, 0.678 ± 0.0074 for the second.

LVWTGGLVGWLR and AYSMMNLYNFAL are within error of each other in protein stability index: 0.719 ± 0.2 for the first, 0.67 ± 0.014 for the second.

Compared with IQSRDDTVEGRK, WWGCLGGRAGSR is higher in protein stability index: 0.63 ± 0.0095 for the first, 0.695 ± 0.028 for the second.

First: KKKKKKKQIKKK
Second: PPLPPPLRPPPS
The protein stability index of the first is higher: 0.747 ± 0.026 for the first, 0.685 ± 0.026 for the second.

VGMGRAPGPDPA and HPPITPYLHRRT are within error of each other in protein stability index: 0.646 ± 0.0093 for the first, 0.724 ± 0.17 for the second.

Compared with FRPLPPPPPSPT, GAGGGRSERERG is lower in protein stability index: 0.672 ± 0.052 for the first, 0.593 ± 0.0074 for the second.

VLSRVSMSLGSP and TNGVNHIDAHGQ are within error of each other in protein stability index: 0.767 ± 0.16 for the first, 0.645 ± 0.018 for the second.

LSRPPSRPLPLP and SCVDHLGCHSSG are within error of each other in protein stability index: 0.677 ± 0.04 for the first, 0.739 ± 0.029 for the second.

YVLLSRFYLPPL and STPRLERDGTTI are within error of each other in protein stability index: 0.665 ± 0.02 for the first, 0.635 ± 0.014 for the second.

TKLKKKGTKKKR and PIVLALPTFPPL are within error of each other in protein stability index: 0.662 ± 0.018 for the first, 0.716 ± 0.048 for the second.

GVEGDPESKGRV and PNLPRHPFPPSS are within error of each other in protein stability index: 0.696 ± 0.068 for the first, 0.74 ± 0.011 for the second.

GDISILGSEYSM and QKREEPQNKSQD are within error of each other in protein stability index: 0.728 ± 0.0091 for the first, 0.72 ± 0.017 for the second.

GGGLGRRLLGGR and KKKTIKNNERSK are the same in protein stability index: 0.69 ± 0.078 for the first, 0.69 ± 0.071 for the second.

PPLPAPGPIFLP and SGVALFFFPPLL are within error of each other in protein stability index: 0.652 ± 0.037 for the first, 0.71 ± 0.039 for the second.

LPITTPLPPLDP and LLPFHPPPPCPP are within error of each other in protein stability index: 0.688 ± 0.02 for the first, 0.733 ± 0.033 for the second.

YRLLRINFALPI and ISLWALSQLPVP are within error of each other in protein stability index: 0.622 ± 0.025 for the first, 0.79 ± 0.19 for the second.

Going from GPPPPLFAPWPF to SHVMLCLHFLFR, the protein stability index falls from 0.656 ± 0.027 to 0.498 ± 0.018.

First: FSRLNAKLPCLA
Second: RKQRERGKCGKR
The protein stability index of the first is lower: 0.579 ± 0.06 for the first, 0.726 ± 0.031 for the second.

SLPLSSALFPPL and THTPPPSPLTLP are within error of each other in protein stability index: 0.72 ± 0.076 for the first, 0.671 ± 0.021 for the second.

VLGCSVIADSCR and KKEEQEKKNRNK are within error of each other in protein stability index: 0.637 ± 0.053 for the first, 0.711 ± 0.027 for the second.

LVGGTVYRKPSP and SPSPPSFRPSLH are within error of each other in protein stability index: 0.599 ± 0.025 for the first, 0.712 ± 0.12 for the second.

PTPTTNPTHSAP and VPPASTSPGAFP are within error of each other in protein stability index: 0.695 ± 0.048 for the first, 0.6889 ± 0.003 for the second.

GAAVWGPLCVWL and LPPLLLPTRPLS are within error of each other in protein stability index: 0.6534 ± 0.0052 for the first, 0.662 ± 0.12 for the second.

GCCWVVISPAGY and PLSHSPPAPSSP are within error of each other in protein stability index: 0.616 ± 0.044 for the first, 0.658 ± 0.026 for the second.

Going from FISYFRFDRFGS to PPLPLPSPRPPP, the protein stability index falls from 0.699 ± 0.029 to 0.619 ± 0.0092.

GGGGVFGVVRVG and LESSLPIDSERC are within error of each other in protein stability index: 0.631 ± 0.037 for the first, 0.675 ± 0.055 for the second.

Compared with AVCGPHLYPRVI, SSPLPPPHASHP is higher in protein stability index: 0.643 ± 0.022 for the first, 0.7104 ± 0.0043 for the second.

YYPLRIADQNGN and PPSHIPASGTKR are within error of each other in protein stability index: 0.795 ± 0.054 for the first, 0.716 ± 0.041 for the second.

First: LFHRAVVGRVRP
Second: RRRTGRRNCTET
The protein stability index of the first is lower: 0.634 ± 0.013 for the first, 0.712 ± 0.038 for the second.

NWRCTLGWSWVR and RVDRVFGGFGGS are within error of each other in protein stability index: 0.706 ± 0.058 for the first, 0.724 ± 0.14 for the second.

RGGVFGTCGVGG and FSFVPRHGVSFR are within error of each other in protein stability index: 0.653 ± 0.035 for the first, 0.6349 ± 0.0059 for the second.

PDPSVERFRGLC and GDGGCKVEWVRG are within error of each other in protein stability index: 0.758 ± 0.095 for the first, 0.724 ± 0.012 for the second.

VGCLGYNSAGIN and RTEMASLERKSF are within error of each other in protein stability index: 0.6968 ± 0.0065 for the first, 0.696 ± 0.017 for the second.

SPRKTAVIGGTT and PVLRLPHDETAN are within error of each other in protein stability index: 0.688 ± 0.034 for the first, 0.705 ± 0.035 for the second.

First: AFLPLYFLEGVL
Second: MSLSLLSLFSSL
The protein stability index of the first is higher: 0.702 ± 0.024 for the first, 0.606 ± 0.027 for the second.

First: PIPSPAPLPPRP
Second: APSPPSHPAAIP
The protein stability index of the first is lower: 0.675 ± 0.0073 for the first, 0.741 ± 0.042 for the second.

EARLGGESSAWG and GDGLGFNRPNGR are within error of each other in protein stability index: 0.655 ± 0.053 for the first, 0.659 ± 0.025 for the second.

LFFLRSSSRGLW and KKKKKKKMTNLK are within error of each other in protein stability index: 0.736 ± 0.055 for the first, 0.809 ± 0.054 for the second.

LPAFHFHSPPTP and PAYTRDIRKPRH are within error of each other in protein stability index: 0.688 ± 0.037 for the first, 0.654 ± 0.051 for the second.

First: PPSLFSSTQLLF
Second: IFPLPPSSRLTP
The protein stability index of the first is higher: 0.7095 ± 0.0067 for the first, 0.6934 ± 0.0037 for the second.

Going from GRAVPKTHPGNL to EYYRYLPVLIRL, the protein stability index falls from 0.7686 ± 0.0037 to 0.467 ± 0.055.

Work on TRPSRRPPRPSS yielded a protein stability index of 0.753 ± 0.22.
